In one data set the target is T1, R.DpnI R231A (UniProt P0A460 1-254, R231A).
T1 sequence: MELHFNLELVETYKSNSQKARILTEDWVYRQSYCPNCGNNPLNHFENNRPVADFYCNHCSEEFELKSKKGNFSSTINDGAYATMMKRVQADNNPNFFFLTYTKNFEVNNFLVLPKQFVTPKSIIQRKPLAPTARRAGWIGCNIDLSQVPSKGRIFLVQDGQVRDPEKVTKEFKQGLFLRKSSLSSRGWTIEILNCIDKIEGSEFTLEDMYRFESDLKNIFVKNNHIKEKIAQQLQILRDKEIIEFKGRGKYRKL
The experiment in a line: filter binding.

Another data set addresses T2, R.DpnI wH domain (UniProt P0A460 181-254).
T2 sequence: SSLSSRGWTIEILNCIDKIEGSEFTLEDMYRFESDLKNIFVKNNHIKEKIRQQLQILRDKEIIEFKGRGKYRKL
The experiment in a line: filter binding.

B1: hmDNA (dsDNA)
DNA 1: ATATGGGATCGTCAGTCAGCG
DNA 2: CGCTGACTGACGATCCCATAT
modifications: m6A in GATC on one strand only (which strand not recoverable from text)
In the case of B1, the binding result with R.DpnI R231A is reported as “no binding”.

B2: nmDNA (dsDNA)
DNA 1: ATATGGGATCGTCAGTCAGCG
DNA 2: CGCTGACTGACGATCCCATAT
Turning to B2, the binding result with R.DpnI R231A is reported as “no binding”.

B3: mDNA (dsDNA)
DNA 1: ATATGGGATCGTCAGTCAGCG
DNA 2: CGCTGACTGACGATCCCATAT
modifications: m6A at position 8 of strand 1 and position 13 of strand 2 (5'-3')
The molecule B3 returned a binding signal with R.DpnI wH domain of 2e+06 counts.
